Laboratory results as given in IntAct's records for PubMed 25517094.

Molecular target: SH3GL1, Q99961-1
Sequence (Q99961 whole entry): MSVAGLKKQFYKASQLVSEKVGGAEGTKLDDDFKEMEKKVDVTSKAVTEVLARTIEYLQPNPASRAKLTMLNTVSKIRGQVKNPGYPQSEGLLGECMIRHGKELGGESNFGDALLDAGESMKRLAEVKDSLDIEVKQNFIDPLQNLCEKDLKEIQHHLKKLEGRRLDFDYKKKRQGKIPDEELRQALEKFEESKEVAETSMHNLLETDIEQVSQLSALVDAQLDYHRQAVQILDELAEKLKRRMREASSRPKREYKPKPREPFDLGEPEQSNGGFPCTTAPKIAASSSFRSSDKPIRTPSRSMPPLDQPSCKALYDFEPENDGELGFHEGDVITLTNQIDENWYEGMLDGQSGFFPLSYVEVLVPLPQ

Sequence of Beta-1 adrenergic receptor (Mus musculus), P34971 R298E;R299E (P34971 whole entry R298E/R299E): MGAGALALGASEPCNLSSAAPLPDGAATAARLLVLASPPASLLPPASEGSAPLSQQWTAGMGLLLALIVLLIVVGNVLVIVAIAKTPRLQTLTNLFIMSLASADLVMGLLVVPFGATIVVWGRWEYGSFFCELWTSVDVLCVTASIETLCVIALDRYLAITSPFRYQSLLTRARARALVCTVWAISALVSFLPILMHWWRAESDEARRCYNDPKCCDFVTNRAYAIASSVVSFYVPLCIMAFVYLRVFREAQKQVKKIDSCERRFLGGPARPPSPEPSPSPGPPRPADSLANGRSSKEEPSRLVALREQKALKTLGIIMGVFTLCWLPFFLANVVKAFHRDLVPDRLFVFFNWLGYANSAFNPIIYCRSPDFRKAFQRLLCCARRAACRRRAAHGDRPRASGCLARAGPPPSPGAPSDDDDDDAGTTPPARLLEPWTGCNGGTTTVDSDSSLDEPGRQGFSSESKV
Sequence of Beta-1 adrenergic receptor (Mus musculus), P34971 R271A (P34971 whole entry R271A): as the sequence (P34971 whole entry R298E/R299E) above, with R271A, E298R, E299R counted along it
Sequence of Beta-1 adrenergic receptor (Mus musculus), P34971 P272A;P273A (P34971 whole entry P272A/P273A): as the sequence (P34971 whole entry R298E/R299E) above, with P272A, P273A, E298R, E299R counted along it
Sequence of Beta-1 adrenergic receptor (Mus musculus), P34971 P272A;P273A;P283A;P284A (P34971 whole entry P272A/P273A/P283A/P284A): as the sequence (P34971 whole entry R298E/R299E) above, with P272A, P273A, P283A, P284A, E298R, E299R counted along it

effect of a mutation on the interaction | Substance
decreasing interaction strength | Beta-1 adrenergic receptor (Mus musculus), P34971 P272A;P273A
disrupting interaction strength | Beta-1 adrenergic receptor (Mus musculus), P34971 P272A;P273A;P283A;P284A
decreasing interaction strength | Beta-1 adrenergic receptor (Mus musculus), P34971 R271A
decreasing interaction strength | Beta-1 adrenergic receptor (Mus musculus), P34971 R298E;R299E
